Test results as given in paper PMC6957217.

Target: E. coli bacteria
Assay: binding to whole E. coli cells in presence of purified E. coli B LPS
Details: read off a plot

| Substance | response (LPS 0.32 ng, parent: est. 32) | response (LPS 1.6 ng, parent: est. 47) | response (LPS 8 ng, parent: est. 62) | response (LPS 40 ng, parent: est. 87) | response (LPS 200 ng, parent: est. 130) | response (LPS 1000 ng, parent: est. 190) | response (LPS 5000 ng, parent: est. 230) |
| --- | --- | --- | --- | --- | --- | --- | --- |
| Phage T4 LTF needle (gp37; amino acids 799–1026), wild type (from UniProt P03744) N937A | 90 % Binding | 92 % Binding | 94 % Binding | 98 % Binding | 110 % Binding | 140 % Binding | 150 % Binding |
| Phage T4 LTF needle (gp37; amino acids 799–1026), wild type (from UniProt P03744) G938A | 90 % Binding | 85 % Binding | 92 % Binding | 92 % Binding | 100 % Binding | 110 % Binding | 120 % Binding |
